According to article PMC7170532:

Biological target: latent myostatin (human) (UniProt O14793)
Assay: SEC-MALS; SRT SEC-500 column, 20 mM phosphate, 200 mM NaCl pH 6.8; latent myostatin alone; 94 kDa observed, 82 kDa calculated

Chain of latent myostatin (O14793 whole entry, looked up): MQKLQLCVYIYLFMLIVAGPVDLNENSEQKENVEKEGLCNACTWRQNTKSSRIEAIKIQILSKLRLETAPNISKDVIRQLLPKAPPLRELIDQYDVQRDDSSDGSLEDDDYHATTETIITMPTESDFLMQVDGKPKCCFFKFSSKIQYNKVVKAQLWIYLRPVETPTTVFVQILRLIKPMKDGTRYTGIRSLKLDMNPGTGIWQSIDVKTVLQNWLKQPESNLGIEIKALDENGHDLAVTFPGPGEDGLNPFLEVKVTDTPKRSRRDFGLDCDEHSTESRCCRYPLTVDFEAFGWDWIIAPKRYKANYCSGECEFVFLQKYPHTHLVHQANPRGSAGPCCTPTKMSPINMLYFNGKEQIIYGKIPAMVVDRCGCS

- stoichiometry N: 2
Substance: latent myostatin (from UniProt O14793 267-375) (complex)
